# Publication PMC8167812 (Cell reports, 2021)
# B1: Clr4 SET domain (residue 190–490) (domain or fragment)
# chain: NPSKLDSYTHLSFYEKRELFRKKLREIEGPEVTLVNEVDDEPCPSLDFQFISQYRLTQGVIPPDPNFQSGCNCSSLGGCDLNNPSRCECLDDLDEPTHFAYDAQGRVRADTGAVIYECNSFCSCSMECPNRVVQRGRTLPLEIFKTKEKGWGVRSLRFAPAGTFITCYLGEVITSAEAAKRDKNYDDDGITYLFDLDMFDDASEYTVDAQNYGDVSRFFNHSCSPNIAIYSAVRNHGFRTIYDLAFFAIKDIQPLEELTFDYAGAKDFSPVQSQKSQQNRISKLRRQCKCGSANCRGWLFG
# Target: Histone H3 tail peptide H3K9MK14C with a C-terminal biotinylated lysine (fission yeast, C-terminal biotinylated lysine)
# Experiment: BLI
binder,measurement,value
B1,t1/2,9.6 s
